{
  "source": "IntAct's records for PubMed 31515488",
  "parents": {"B1": {"name": "Septin-12 (Homo sapiens), Q8IYM1 (parent)", "chain": "MDPLRRSPSPCLSSQPSSPSTPPCEMLGPVGIEAVLDQLKIKAMKMGFEFNIMVVGQSGLGKSTMVNTLFKSKVWKSNPPGLGVPTPQTLQLHSLTHVIEEKGVKLKLTVTDTPGFGDQINNDNCWDPILGYINEQYEQYLQEEILITRQRHIPDTRVHCCVYFVPPTGHCLRPLDIEFLQRLCRTVNVVPVIARADSLTMEEREAFRRRIQQNLRTHCIDVYPQMCFDEDINDKILNSKLRDRIPFAVVGADQEHLVNGRCVLGRKTKWGIIEVENMAHCEFPLLRDLLIRSHLQDLKDITHNIHYENYRVIRLNESHLLPRGPGWVNLAPASPGQLTTPRTFKVCRGAHDDSDDEF", "partner": "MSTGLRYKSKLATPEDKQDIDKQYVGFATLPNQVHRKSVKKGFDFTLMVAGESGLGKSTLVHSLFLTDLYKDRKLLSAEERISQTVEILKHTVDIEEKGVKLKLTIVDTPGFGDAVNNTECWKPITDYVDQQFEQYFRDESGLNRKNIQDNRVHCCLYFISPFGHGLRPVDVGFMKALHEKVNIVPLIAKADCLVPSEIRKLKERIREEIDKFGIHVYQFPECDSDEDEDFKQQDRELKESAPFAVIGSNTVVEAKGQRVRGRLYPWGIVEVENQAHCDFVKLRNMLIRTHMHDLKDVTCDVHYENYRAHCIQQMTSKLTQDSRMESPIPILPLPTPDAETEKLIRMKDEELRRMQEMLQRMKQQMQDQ"}, "B2": {"name": "Dolichyl-diphosphooligosaccharide--protein glycosyltransferase subunit 1 (Homo sapiens), P04843 (parent)", "chain": "MEAPAAGLFLLLLLGTWAPAPGSASSEAPPLINEDVKRTVDLSSHLAKVTAEVVLAHLGGGSTSRATSFLLALEPELEARLAHLGVQVKGEDEEENNLEVRETKIKGKSGRFFTVKLPVALDPGAKISVIVETVYTHVLHPYPTQITQSEKQFVVFEGNHYFYSPYPTKTQTMRVKLASRNVESYTKLGNPTRSEDLLDYGPFRDVPAYSQDTFKVHYENNSPFLTITSMTRVIEVSHWGNIAVEENVDLKHTGAVLKGPFSRYDYQRQPDSGISSIRSFKTILPAAAQDVYYRDEIGNVSTSHLLILDDSVEMEIRPRFPLFGGWKTHYIVGYNLPSYEYLYNLGDQYALKMRFVDHVFDEQVIDSLTVKIILPEGAKNIEIDSPYEISRAPDELHYTYLDTFGRPVIVAYKKNLVEQHIQDIVVHYTFNKVLMLQEPLLVVAAFYILFFTVIIYVRLDFSITKDPAAEARMKVACITEQVLTLVNKRIGLYRHFDETVNRYKQSRDISTLNSGKKSLETEHKALTSEIALLQSRLKTEGSDLCDRVSEMQKLDAQVKELVLKSAVEAERLVAGKLKKDTYIENEKLISGKRQELVTKIDHILDAL"}, "B3": {"name": "Coiled-coil domain-containing protein 92 (Homo sapiens), Q53HC0 (parent)", "chain": "MTSPHFSSYDEGPLDVSMAATNLENQLHSAQKNLLFLQREHASTLKGLHSEIRRLQQHCTDLTYELTVKSSEQTGDGTSKSSELKKRCEELEAQLKVKENENAELLKELEQKNAMITVLENTIKEREKKYLEELKAKSHKLTLLSSELEQRASTIAYLTSQLHAAKKKLMSSSGTSDASPSGSPVLASYKPAPPKDKLPETPRRRMKKSLSAPLHPEFEEVYRFGAESRKLLLREPVDAMPDPTPFLLARESAEVHLIKERPLVIPPIASDRSGEQHSPAREKPHKAHVGVAHRIHHATPPQAQPEVKTLAVDQVNGGKVVRKHSGTDRTV", "partner": "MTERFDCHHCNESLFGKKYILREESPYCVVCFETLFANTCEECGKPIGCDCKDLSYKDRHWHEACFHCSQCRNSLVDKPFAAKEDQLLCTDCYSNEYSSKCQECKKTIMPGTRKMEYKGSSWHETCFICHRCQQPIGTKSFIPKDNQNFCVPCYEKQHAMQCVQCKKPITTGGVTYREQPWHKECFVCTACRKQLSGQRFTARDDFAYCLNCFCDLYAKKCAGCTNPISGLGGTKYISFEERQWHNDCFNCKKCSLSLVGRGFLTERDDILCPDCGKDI"}, "B4": {"name": "Arginine/serine-rich protein 1 (Homo sapiens), Q9BUV0 (parent)", "chain": "MSNYVNDMWPGSPQEKDSPSTSRSGGSSRLSSRSRSRSFSRSSRSHSRVSSRFSSRSRRSKSRSRSRRRHQRKYRRYSRSYSRSRSRSRSRRYRERRYGFTRRYYRSPSRYRSRSRSRSRSRGRSYCGRAYAIARGQRYYGFGRTVYPEEHSRWRDRSRTRSRSRTPFRLSEKDRMELLEIAKTNAAKALGTTNIDLPASLRTVPSAKETSRGIGVSSNGAKPELSEKVTEDGTRNPNEKPTQQRSIAFSSNNSVAKPIQKSAKAATEEASSRSPKIDQKKSPYGLWIPI"}},
  "data": [
    {"variants_of": "B1", "details": "with sept5_human SEPTIN5, Q99719", "values": [
      {"variant": "G169E", "effect of a mutation on the interaction": "disrupting interaction strength"},
      {"variant": "C184S", "effect of a mutation on the interaction": "with no effect"},
      {"variant": "D197N", "effect of a mutation on the interaction": "disrupting interaction strength"},
      {"variant": "R204Q", "effect of a mutation on the interaction": "disrupting interaction strength"},
      {"variant": "Q213R", "effect of a mutation on the interaction": "disrupting interaction strength"},
      {"variant": "V263D", "effect of a mutation on the interaction": "disrupting interaction strength"},
      {"variant": "R311C", "effect of a mutation on the interaction": "with no effect"}
    ]},
    {"variants_of": "B2", "details": "with ubql1_human UBQLN1, Q9UMX0", "values": [
      {"variant": "F203L", "effect of a mutation on the interaction": "disrupting interaction strength"}
    ]},
    {"variants_of": "B2", "details": "with sgta_human SGTA", "values": [
      {"variant": "F203L", "effect of a mutation on the interaction": "with no effect"}
    ]},
    {"variants_of": "B3", "details": "with fhl2_human FHL2, Q14192", "values": [
      {"variant": "S70C", "effect of a mutation on the interaction": "with no effect"}
    ]},
    {"variants_of": "B4", "details": "with clk2_human CLK2, P49760", "values": [
      {"variant": "S20L", "effect of a mutation on the interaction": "with no effect"}
    ]},
    {"variants_of": "B4", "details": "with clk3_human CLK3, P49761", "values": [
      {"variant": "S20L", "effect of a mutation on the interaction": "with no effect"}
    ]}
  ]
}
